The values below come from publication PMC8871475, “An Antibody-Aptamer-Hybrid Lateral Flow Assay for Detection of CXCL9 in Antibody-Mediated Rejection after Kidney Transplantation”.

This data set concerns the target T1, CXCL9 (CXC-motif chemokine ligand 9) (UniProt Q07325 23-125).
T1 sequence: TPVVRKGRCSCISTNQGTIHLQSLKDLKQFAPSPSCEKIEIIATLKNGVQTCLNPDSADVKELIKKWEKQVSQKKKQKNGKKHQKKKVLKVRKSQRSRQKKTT
Kind of data set: lateral flow assay (antibody-aptamer sandwich); capture antibody A in test zone; LOD 10 pg/mL CXCL9 in binding buffer, 45 min; LFA binding buffer (PBS-based, urine-like): 138 mM NaCl, 5 mM KCl, 8.1 mM Na2HPO4, 1.5 mM KH2PO4, 1 mM MgCl2, 1 mM CaCl2, 170 mM urea, 7 mM ammonium acetate, 0.25% BSA, 0.1 mg/mL salmon sperm DNA, pH 6.5; temperature not stated; Kd conditions not given. The note with it: protein: commercial; label: gold nanoparticle (5').

B1: AuNP-G123 (ssDNA)
DNA: CACGACGCAAGGGACCACAGGGAGGGAGGGTGGGCAAAGGGCCCTAAGTCCGTAACAAAAACACAGCACGACACCGCAGAGGCA
modifications: 5' C6-disulfide linker and hexaethylene glycol spacer
Consider B1, for which the binding result is given as “binds”.
